Measured values published in patent publication WO2007054120A1 (dated 2007).

Tests used:
[1] = biological target: T1, recombinant fibronectin domain ED-B (His)6 (human, UniProt P02751 1266-1356); experiment: SPR (BIAcore), ED-B on chip, Fab in flow
T1 construct: domain: ED-B; Biotinylated ED-B was used only in pannings; also called rekombinantes ED-B; human ED-B

[2] = biological target: T1, recombinant fibronectin domain ED-B …; experiment: SPR (BIAcore), about 100 RU ED-B on chip, Fab in flow
[3] = biological target: T1, recombinant fibronectin domain ED-B …; experiment: SPR (BIAcore), ED-B on chip, Fab monomer in flow

Binder | Kd [2] [pM] | other results
MOR03075 (Fab, V domains shown) VH: QVQLQESGPGLVKPGETLSLTCTVSGGSISSYYWSWIRQAPGKGLEWIGIGHWGSTQYNPSLKGRVTISVDTSKNQFSLKLSSVTAEDTAVYYCARFFDVWGQGTLVTVSS VL: DIVLTQPPSVSGAPGQRVTISCSGSSSNIGSNTVRWYQQLPGTAPKLLIYSNNKRPSGVPDRFSGSKSGTSASLAITGLQSEDEADYYCQSWDPRSFTVFGGGTKLTVLG |  | Kd [1]: 2400 pM
MOR03243 (Fab, V domains shown) VH: QVQLQESGPGLVKPGETLSLTCTVSGGSISSYYWSWIRQAPGKGLEWIGEIHRGGYTQYNPSLKSRVTISVDTSKNQFSLKLSSVTAADTAVYYCARFFDVWGQGTLVTVSS VL: DIVLTQPPSVSGAPGQRVTISCSGSSSNIGSNTVRWYQQLPGTAPKLLIYSNNKRPSGVPDRFSGSKSGTSASLAITGLQSEDEADYYCQAWTRAHRYPVFGGGTKLTVLG | ~700 | 
MOR03245 (Fab, V domains shown) VH: QVQLQESGPGLVKPGETLSLTCTVSGGSISSYYWSWIRQAPGKGLEWIGVIHKWGFTNYNPSLKSRVTISVDTSKNQFSLKLSSVTAADTAVYYCARFFDVWGQGTLVTVSS VL: DIVLTQPPSVSGAPGQRVTISCSGSSSNIGSNTVRWYQQLPGTAPKLLIYSNNKRPSGVPDRFSGSKSGTSASLAITGLQSEDEADYYCWTGMSYHFVFGGGTKLTVLG | ~700 | 
MOR03255 (Fab, V domains shown) VH: QVQLVESGGGLVQPGGSLRLSCAASGFTFSSYGMHWVRQAPGKGLEWVSVISNRSSYIYYADSVKGRFTISRDNSKNTLYLQMNSLRAEDTAVYYCARNKVGFDVWGQGTLVTVSS VL: DIALTQPASVSGSPGQSITISCTGTSSDGGGYNTVSWYQQHPGKAPKLMIYYVHKRPSGVSNRFSGSKSGNTASLTISGLQAEDEADYYCQSWDLSVHQVVFGGGTKLTVLG | 30 | 
MOR03062 (Fab, V domains shown) VH: QVQLVESGGGLVQPGGSLRLSCAASGFTFSSYGMHWVRQAPGKGLEWVSVISSSGSYIYYADSVKGRFTISRDNSKNTLYLQMNSLRAEDTAVYYCARNKVGFDVWGQGTLVTVSS VL: DIALTQPASVSGSPGQSITISCTGTSSDGGGYNTVSWYQQHPGKAPKLMIYYVHKRPSGVSNRFSGSKSGNTASLTISGLQAEDEADYYCQSWDLSVHQVVFGGGTKLTVLG |  | Kd [3]: 2400 pM; fold affinity enhancement against MOR02715 [1]: 15 fold
MOR03258 (Fab, V domains shown) VH: QVQLVESGGGLVQPGGSLRLSCAASGFTFSSYGMHWVRQAPGKGLEWVSVISNQSNYIYYADSVKGRFTISRDNSKNTLYLQMNSLRAEDTAVYYCARNKVGFDVWGQGTLVTVSS VL: DIALTQPASVSGSPGQSITISCTGTSSDGGGYNTVSWYQQHPGKAPKLMIYYVHKRPSGVSNRFSGSKSGNTASLTISGLQAEDEADYYCQSWDLLAPSVVFGGGTKLTVL | 40 | 
MOR03246 (Fab, V domains shown) VH: QVQLVQSGAEVKKPGASVKVSCKASGYTFTGFYINWVRQAPGQGLEWMGWINPYSGNTRYAQKFQGRVTMTRDTSISTAYMELSSLRSEDTAVYYCARSPVYYKYDYWGQGTLVTVSS VL: DIVLTQPPSVSGAPGQRVTISCSGSSSNIGSNTVRWYQQLPGTAPKLLIYSNNKRPSGVPDRFSGSKSGTSASLAITGLQSEDEADYYCQSWDPRSFTVFGGGTKLTVL | 600 | 
